Experimental data taken from article PMC2583301.

B1: yNap1(74-365) (domain or fragment)
chain: LGSLVGQDSGYVGGLPKNVKEKLLSLKTLQSELFEVEKEFQVEMFELENKFLQKYKPIWEQRSRIISGQEQPKPEQIAKGQEIVESLNETELLVDEEEKAQNDSEEEQVKGIPSFWLTALENLPIVCDTITDRDAEVLEYLQDIGLEYLTDGRPGFKLLFRFDSSANPFFTNDILCKTYFYQKELGYSGDFIYDHAEGCEISWKDNAHNVTVDLEMRKQRNKTTKQVRTIEKITPIESFFNFFDPPKIQNEDQDEELEEDLEERLALDYSIGEQLKDKLIPRAVDWFTGAAL
B2: yNap1(1-365) (domain or fragment)
chain: MSDPIRTKPKSSMQIDNAPTPHNTPASVLNPSYLKNGNPVRAQAQEQDDKIGTINEEDILANQPLLLQSIQDRLGSLVGQDSGYVGGLPKNVKEKLLSLKTLQSELFEVEKEFQVEMFELENKFLQKYKPIWEQRSRIISGQEQPKPEQIAKGQEIVESLNETELLVDEEEKAQNDSEEEQVKGIPSFWLTALENLPIVCDTITDRDAEVLEYLQDIGLEYLTDGRPGFKLLFRFDSSANPFFTNDILCKTYFYQKELGYSGDFIYDHAEGCEISWKDNAHNVTVDLEMRKQRNKTTKQVRTIEKITPIESFFNFFDPPKIQNEDQDEELEEDLEERLALDYSIGEQLKDKLIPRAVDWFTGAAL
B3: yNap1(74-417) (domain or fragment)
chain: LGSLVGQDSGYVGGLPKNVKEKLLSLKTLQSELFEVEKEFQVEMFELENKFLQKYKPIWEQRSRIISGQEQPKPEQIAKGQEIVESLNETELLVDEEEKAQNDSEEEQVKGIPSFWLTALENLPIVCDTITDRDAEVLEYLQDIGLEYLTDGRPGFKLLFRFDSSANPFFTNDILCKTYFYQKELGYSGDFIYDHAEGCEISWKDNAHNVTVDLEMRKQRNKTTKQVRTIEKITPIESFFNFFDPPKIQNEDQDEELEEDLEERLALDYSIGEQLKDKLIPRAVDWFTGAALEFEFEEDEEEADEDEDEEEDDDHGLEDDDGESAEEQDDFAGRPEQAPECKQS

Target: H2A/H2B(T112C) dimer, H2B labelled with Alexa dye (Xenopus laevis) (UniProt P06897)
Test: other fluorescence titration

| Binder | Kd [nM] | Kd app (yNap1 counted as dimer) [nM] |
| --- | --- | --- |
| B1 | 10 | 5.4 |
| B2 | 2.1 | 1 |
| B3 | 1.7 | 0.9 |
